In publication doi:10.1101/2024.05.10.593582:

Target: His6-Gp54^Bas11 (phage Bas11)
Experiment: ITC

- Kd: 800 nM
- stoichiometry N: 1
Substance: His6-MBP-CapRel^SJ46 (natural protein)
